Earlier results as cited in article PMC5874834.

Target: VEGF165 VEGF165 (Homo sapiens) (UniProt P15692)
Chain of UniProt P15692 (P15692 207-321, chain 1 of 2): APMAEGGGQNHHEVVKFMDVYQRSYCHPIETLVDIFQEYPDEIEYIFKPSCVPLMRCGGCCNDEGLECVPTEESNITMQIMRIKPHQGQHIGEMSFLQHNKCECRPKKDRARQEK
Chain of UniProt P15692 (P15692 346-395, chain 2 of 2): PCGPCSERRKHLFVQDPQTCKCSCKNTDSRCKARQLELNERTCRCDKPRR

- Kd: 1.6 pM
Substance: Brolucizumab scFv
